Experiment [1] has as its target T1, Nck (human, WT, residues 1-377) (human).
T1 construct: two extra N-terminal residues printed before Met1; Nck, human, WT, residues 1-377; source: E. coli BL21(DE3)T1R, purified (glutathione sepharose, TEV on beads, Source 15Q, Source 15S, SD75)
As to the kind of experiment: ITC; Nck (150 uM) in the syringe titrated into 5 uM p-Nephrin (3pY) or p-TIR (3pY); 25 mM Hepes pH 7.5, 150 mM NaCl, 1 mM MgCl2, 2 mM TCEP; three-site binding model with a single affinity for Nck (NITPIC, Sedphat); the constant is that of one pTyr site. The following applies: both partners purified. Background: In ITC the heat of successive injections is recorded.

Experiment [2] has as its target T2, Nck (cysteine-modified; human, residues 1-377, C139S, C232A, C266S, C340S), fluorophore-labelled (human, C139S (stands in the printed letters) | C232A (stands in the printed letters) | …, maleimide Alexa568 (imaging of association and three color imaging) or Alexa488 (FRAP) on cysteine).
T2 construct: extra N-terminal residues printed before Met1, with the only cysteine left in the chain; Nck, human, residues 1-377 with C139S, C232A, C266S, C340S; The methods tell the expression and purification for GST-Nck; that the cysteine-modified form was made the same way is surmised; also called Nck Alexa568; Nck Alexa488; source: E. coli BL21(DE3)T1R, purified; labelled with a maleimide-conjugated …
Put plainly: fluorescence (TIRF) microscopy of recruitment to a supported lipid bilayer; His8-p-Nephrin Alexa488 attached to a DOPC bilayer with 1% Ni2+-NTA DOGS; 1 uM Nck Alexa568 alone in solution; 25 mM Hepes pH 7.5, 150 mM NaCl, 1 mM MgCl2, 1 mM BME, 0.1% BSA. The following applies: both partners purified.

One may read the Kd as the free concentration of one partner at which half of the binding sites on the other are occupied at equilibrium, for simple one-to-one binding. A high value points to weaker binding.

B1: triply phosphorylated TIR3Y (His8-tagged human Nephrin tail with its pTyr sites replaced by the pTyr motif of EPEC Tir) (domain or fragment)
chain: GGSLEHHHHHHHHGGSCGGSGGSGGSGGSHMHIYDEVAADPPPSGAWGHIYDEVAADPWDLHWPEDTFQDPRHIYDEVAADP
modifications: phosphotyrosine in each of the three Tir motifs (triply phosphorylated); fluorescent in the bilayer experiments
notes: N-terminal stretch as printed: holds the His8 tag named under tags, the Gly-Gly-Ser linker with the cysteine, and HM before the first Tir motif; Nephrin, human, stretch between the first and second pTyr sites; Nephrin, human, stretch between the second and third pTyr sites, with Phe at 1210 as in Nephrin3Y; also called p-TIR; p-TIR (3pY); source: E. coli BL21(DE3)T1R, purified (told for …)
For the molecule B1, binding in experiment [1] was put at a Kd of 40 nM.

B2: triply phosphorylated His8-tagged Nephrin cytoplasmic tail (amino acids 1174-1223, Y1183F, Y1210F; pTyr1176, pTyr1193, pTyr1217) (domain or fragment, human)
chain: GGSLEHHHHHHHHGGSCGGSGGSGGSGGSHLYDEVERTFPPSGAWGPLYDEVQMGPWDLHWPEDTFQDPRGIYDQVAGD
modifications: phosphotyrosine at Tyr1176, Tyr1193 and Tyr1217; maleimide Alexa488 on the single cysteine of the linker (bilayer experiments)
notes: N-terminal stretch as printed: holds the His8 tag named under tags and the (Gly-Gly-Ser)5 linker with the cysteine that is labelled; Nephrin, human, cytoplasmic tail residues 1174-1223 with Y1183F and Y1210F; also called p-Nephrin; Nephrin3Y (before phosphorylation); source: E. coli BL21(DE3)T1R, purified (Ni-NTA, Source 15Q, SD200); phosphorylated with Lck kinase and purified again (Source 15Q, …)
For B2, in experiment [2], the binding result is listed as “binds”. Further, the Kd in experiment [1] worked out at 370 nM.

These data come from paper PMC4238058, “Phase transitions of multivalent proteins can promote clustering of membrane receptors” (eLife, 2014).
